In US20180057536:

Experiments:
[1] = test system: T1, Selective delivery molecule 10 (SDM-10)
T1 sequence: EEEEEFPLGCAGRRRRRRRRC

[2] = test system: T2, Selective delivery molecule 9 (SDM-9)
T2 sequence: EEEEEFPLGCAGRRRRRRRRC

Row | Substance | Cy5 fluorescence enhancement after protease cleavage (dequenching), 1 uM SDM-10 in TCNB buffer [1] | fluorescent cleavage fragment on polyacrylamide gel (1 nM MMP-9, 1 uM SDM-10, 24 h, 37 C) [1] | Cy5 donor emission after protease cleavage (FRET disruption), 1 uM SDM-9 in TCNB buffer [2] | Cy7 acceptor emission after protease cleavage (FRET disruption), 1 uM SDM-9 in TCNB buffer [2]
1 | MMP-9 | the fluorescence was enhanced >100-fold upon protease cleavage | After cleavage by MMP-9 the fragment containing the fluorophore is dequenched (becoming highly fluorescent) and runs near the bottom of the gel | – | –
2 | matrix metalloproteinase-2 (MMP-2) | – | – | a large 8-fold increase the Cy5 donor emission | 2-fold decrease in the Cy7 emission
